Assay results reported in paper PMC4621513, “APOBEC3G Interacts with ssDNA by Two Modes: AFM Studies”.

Biological target: APOBEC3G (A3G) (UniProt Q9HC16 1-384)
Assay: AFM force spectroscopy; two binding modes; stronger and more stable complexes than with nonspecific ssDNA; Force spectroscopy probing buffer: 50 mM HEPES, 100 mM NaCl, 5 mM MgCl2, 1 mM DTT (pH and temperature not given); imaging buffer not in the material
Settings: protein: recombinant; tags: mycHis (C-terminal)

Chain of APOBEC3G (A3G) (Q9HC16 whole entry): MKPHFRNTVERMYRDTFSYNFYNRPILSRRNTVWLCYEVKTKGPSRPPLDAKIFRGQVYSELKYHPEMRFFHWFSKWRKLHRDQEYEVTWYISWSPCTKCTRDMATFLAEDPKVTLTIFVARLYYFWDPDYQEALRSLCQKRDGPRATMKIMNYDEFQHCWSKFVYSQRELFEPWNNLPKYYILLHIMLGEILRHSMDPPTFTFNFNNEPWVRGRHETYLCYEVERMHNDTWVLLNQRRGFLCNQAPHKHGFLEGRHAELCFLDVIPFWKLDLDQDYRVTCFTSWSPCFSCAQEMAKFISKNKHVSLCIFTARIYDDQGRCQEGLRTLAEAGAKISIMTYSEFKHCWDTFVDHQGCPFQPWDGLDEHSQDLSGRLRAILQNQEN

B1: 69 nt deaminase specific ssDNA (ssDNA)
DNA: TACGTGTAGGAATTATATTAAAGAGAAAGTGAAACCCAAAGAATGAAAACCCAAATGTTAGAATTGTTA
modifications: 5' thiol
Does B1 bind?
Result: binds
